From article PMC6684798, “Structural basis for the target specificity of actin histidine methyltransferase SETD3” (Nature Communications, 2019)

Biological target: T1, SETD3 (Homo sapiens, UniProt Q86TU7)
T1 construct: GST (cleaved yes); made in house; host or cells: Escherichia coli BL21(DE3) CodonPlus
T1 sequence (Q86TU7 1-594): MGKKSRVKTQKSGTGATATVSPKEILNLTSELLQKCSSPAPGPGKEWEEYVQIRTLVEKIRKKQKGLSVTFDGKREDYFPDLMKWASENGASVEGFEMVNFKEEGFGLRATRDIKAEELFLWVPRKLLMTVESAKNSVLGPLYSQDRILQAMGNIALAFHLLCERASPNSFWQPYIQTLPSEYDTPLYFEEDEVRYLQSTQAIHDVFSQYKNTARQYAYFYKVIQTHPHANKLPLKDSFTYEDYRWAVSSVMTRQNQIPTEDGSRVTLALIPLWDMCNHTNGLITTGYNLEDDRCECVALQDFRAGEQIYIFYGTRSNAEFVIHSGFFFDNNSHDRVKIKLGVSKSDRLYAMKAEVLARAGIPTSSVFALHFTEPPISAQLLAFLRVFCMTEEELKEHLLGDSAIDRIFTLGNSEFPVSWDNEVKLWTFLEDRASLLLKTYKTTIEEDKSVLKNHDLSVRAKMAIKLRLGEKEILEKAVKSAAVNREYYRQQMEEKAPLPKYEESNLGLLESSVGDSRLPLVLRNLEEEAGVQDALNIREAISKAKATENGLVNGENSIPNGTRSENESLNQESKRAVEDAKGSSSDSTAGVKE
Test: SETD3 activity time course under conditions optimized for H73(66-80) (Supplementary Fig. 3a)
Type: biochemical
Conditions: pH 8.0, room temperature; for CH3 transferred: [E]=0.18 µM, [SAM]=40 µM, [S]=20 µM
Procedure: Recombinant human SETD3 (pXC2003) was expressed as a GST-fusion[22] in Escherichia coli BL21(DE3) CodonPlus^TM cells (Stratagene). The SETD3 mutants at residue 255 (N255A; pXC2093 and N255V; pXC2094) were generated with Q5 Site-Directed Mutagenesis Kit (New England Biolabs), confirmed by sequencing and the same protocol for expression and purification were followed. Briefly, the purification was conducted in a BIO-RAD NGC^TM system using a three-column chromatography of glutathione-sepharose, HiTrap Q-HP and Superdex 200. The GST tag was removed by PreScisson Protease (purified in-house). The purified SETD3 proteins at a concentration ~25–35 mg/ml were kept at −80 °C in storage buffer for future use [20 mM Tris (pH 8.0), 200 mM NaCl, 5% glycerol, and 0.5 mM tris (2-carboxyethyl) phosphine (TCEP)]. […]
conditions optimized for H73(66-80) (red line): [E]=0.18 µM, [SAM]=40 µM, [S]=20 µM, pH 8.0 at room temperature for indicated reaction time. b, SETD3 activity on H73(66-80) at two difference temperatures under the conditions of [E]=0.18 µM, [SAM]=40 µM, [SH7 3]=20 µM at pH 8. 0 for 20 min reaction. c, SETD3 activity on K73 (66-80 ) at room temperature (~22 °C) and 37 °C under the conditions of increased amounts of [E]=15 µM, [SAM]=100 µM and [S K73]=700 µM at pH 8.0 for overnight reaction. Data represent the mean ± SD of N number of independent determinations (N=2 in panels a and b and N=4 in panel c) performed in duplicate. […]

K73(66–80): K73-containing (H73K) actin peptide, residues 66–80 (TLKYPIEKGIVTNWD; UniProt P60709 66-80, looked up, variant H73K)
CH3 transferred (0 min, replicate 1): 0 µM | CH3 transferred (0 min, replicate 2): 0 µM | CH3 transferred (10 min, replicate 1): 0.00913 µM | CH3 transferred (10 min, replicate 2): 0.005151 µM | CH3 transferred (20 min, replicate 1): 0.005187 µM | CH3 transferred (20 min, replicate 2): 0.000604 µM | CH3 transferred (30 min, replicate 1): 0.002842 µM | CH3 transferred (30 min, replicate 2): -0.00142 µM | SETD3 activity under conditions optimized for H73 peptide ([E] = 0.18 µM, [SAM] = 40 µM, [S] = 20 µM): no activity
